In publication PMC11322666 (2024):

B1: UPF3B^WT, Flag tagged [human] / UPF2, endogenous [human (endogenous in HEK293T)] (parent complex)
chain 1: MKEEKEHRPKEKRVTLLTPAGATGSGGGTSGDSSKGEDKQDRNKEKKEALSKVVIRRLPPTLTKEQLQEHLQPMPEHDYFEFFSNDTSLYPHMYARAYINFKNQEDIILFRDRFDGYVFLDNKGQEYPAIVEFAPFQKAAKKKTKKRDTKVGTIDDDPEYRKFLESYATDNEKMTSTPETLLEEIEAKNRELIAKKTTPLLSFLKNKQRMREEKREERRRREIERKRQREEERRKWKEEEKRKRKDIEKLKKIDRIPERDKLKDEPKIKVHRFLLQAVNQKNLLKKPEKGDEKELDKREKAKKLDKENLSDERASGQSCTLPKRSDSELKDEKPKRPEDESGRDYREREREYERDQERILRERERLKRQEEERRRQKERYEKEKTFKRKEEEMKKEKDTLRDKGKKAESTESIGSSEKTEKKEEVVKRDRIRNKDRPAMQLYQPGARSRNRLCPPDDSTKSGDSAAERKQESGISHRKEGGEE
chain 2: MPAERKKPASMEEKDSLPNNKEKDCSERRTVSSKERPKDDIKLTAKKEVSKAPEDKKKRLEDDKRKKEDKERKKKDEEKVKAEEESKKKEEEEKKKHQEEERKKQEEQAKRQQEEEAAAQMKEKEESIQLHQEAWERHHLRKELRSKNQNAPDSRPEENFFSRLDSSLKKNTAFVKKLKTITEQQRDSLSHDFNGLNLSKYIAEAVASIVEAKLKISDVNCAVHLCSLFHQRYADFAPSLLQVWKKHFEARKEEKTPNITKLRTDLRFIAELTIVGIFTDKEGLSLIYEQLKNIINADRESHTHVSVVISFCRHCGDDIAGLVPRKVKSAAEKFNLSFPPSEIISPEKQQPFQNLLKEYFTSLTKHLKRDHRELQNTERQNRRILHSKGELSEDRHKQYEEFAMSYQKLLANSQSLADLLDENMPDLPQDKPTPEEHGPGIDIFTPGKPGEYDLEGGIWEDEDARNFYENLIDLKAFVPAILFKDNEKSCQNKESNKDDTKEAKESKENKEVSSPDDLELELENLEINDDTLELEGGDEAEDLTKKLLDEQEQEDEEASTGSHLKLIVDAFLQQLPNCVNRDLIDKAAMDFCMNMNTKANRKKLVRALFIVPRQRLDLLPFYARLVATLHPCMSDVAEDLCSMLRGDFRFHVRKKDQINIETKNKTVRFIGELTKFKMFTKNDTLHCLKMLLSDFSHHHIEMACTLLETCGRFLFRSPESHLRTSVLLEQMMRKKQAMHLDARYVTMVENAYYYCNPPPAEKTVKKKRPPLQEYVRKLLYKDLSKVTTEKVLRQMRKLPWQDQEVKDYVICCMINIWNVKYNSIHCVANLLAGLVLYQEDVGIHVVDGVLEDIRLGMEVNQPKFNQRRISSAKFLGELYNYRMVESAVIFRTLYSFTSFGVNPDGSPSSLDPPEHLFRIRLVCTILDTCGQYFDRGSSKRKLDCFLVYFQRYVWWKKSLEVWTKDHPFPIDIDYMISDTLELLRPKIKLCNSLEESIRQVQDLEREFLIKLGLVNDKDSKDSMTEGENLEEDEEEEEGGAETEEQSGNESEVNEPEEEEGSDNDDDEGEEEEEENTDYLTDSNKENETDEENTEVMIKGGGLKHVPCVEDEDFIQALDKMMLENLQQRSGESVKVHQLDVAIPLHLKSQLRKGPPLGGGEGEAESADTMPFVMLTRKGNKQQFKILNVPMSSQLAANHWNQQQAEQEERMRMKKLTLDINERQEQEDYQEMLQSLAQRPAPANTNRERRPRYQHPKGAPNADLIFKTGGRRR
B2: UPF3B^WT, Flag tagged [human] / inositol-requiring enzyme-1α (IRE1α), endogenous [human (endogenous in HEK293T and U2OS)] (parent complex)
chain 1: B1 chain 1
chain 2: IFGSTSTVTLPETLLFVSTLDGSLHAVSKRTGSIKWTLKEDPVLQVPTHVEEPAFLPDPNDGSLYTLGSKNNEGLTKLPFTIPELVQASPCRSSDGILYMGKKQDIWYVIDLLTGEKQQTLSSAFADSLCPSTSLLYLGRTEYTITMYDTKTRELRWNATYFDYAASLPEDDVDYKMSHFVSNGDGLVVTVDSESGDVLWIQNYASPVVAFYVWQREGLRKVMHINVAVETLRYLTFMSGEVGRITKWKYPFPKETEAKSKLTPTLYVGKYSTSLYASPSMVHEGVAVVPRGSTLPLLEGPQTDGVTIGDKGECVITPSTDVKFDPGLKSKNKLNYLRNYWLLIGHHETPLSASTKMLERFPNNLPKHRENVIPADSEKKSFEEVINLVDQTSENAPTTVSRDVEEKPAHAPARPEAPVDSMLKDMATIILSTFLLIGWVAFIITYPLSMHQQQQLQHQQFQKELEKIQLLQQQQQQLPFHPPGDTAQDGELLDTSGPYSESSGTSSPSTSPRASNHSLCSGSSASKAGSSPSLEQDDGDEETSVVIVGKISFCPKDVLGHGAEGTIVYRGMFDNRDVAVKRILPECFSFADREVQLLRESDEHPNVIRYFCTEKDRQFQYIAIELCAATLQEYVEQKDFAHLGLEPITLLQQTTSGLAHLHSLNIVHRDLKPHNILISMPNAHGKIKAMISDFGLCKKLAVGRHSFSRRSGVPGTEGWIAPEMLSEDCKENPTYTVDIFSAGCVFYYVISEGSHPFGKSLQRQANILLGACSLDCLHPEKHEDVIARELIEKMIAMDPQKRPSAKHVLKHPFFWSLEKQLQFFQDVSDRIEKESLDGPIVKQLERGGRAVVKMDWRENITVPLQTDLRKFRTYKGGSVRDLLRAMRNKKHHYRELPAEVRETLGSLPDDFVCYFTSRFPHLLAHTYRAMELCSHERLFQPYYFHEPPEPQPPVTPDAL

Variants of: B1
Assay: co-immunoprecipitation (IP: Flag, blot UPF2), western blot band quantification; transfected for 24 h

Variant	ratio to parent
chain 1 MKEEKEHRPKEKRVTLLTPAGATGSGGGTSGDSSKGEDKQDRNKEKKEALSKVVIRRLPPTLTKEQLQEHLQPMPEHDYFEFFSNDTSLYPHMYARAYINFKNQEDIILFRDRFDGYVFLDNKGQEYPAIVEFAPFQKAAKKKTKKRDTKVGTIDDDPEDRKFLESYATDNEKMTSTPETLLEEIEAKNRELIAKKTTPLLSFLKNKQRMREEKREERRRREIERKRQREEERRKWKEEEKRKRKDIEKLKKIDRIPERDKLKDEPKIKVHRFLLQAVNQKNLLKKPEKGDEKELDKREKAKKLDKENLSDERASGQSCTLPKRSDSELKDEKPKRPEDESGRDYREREREYERDQERILRERERLKRQEEERRRQKERYEKEKTFKRKEEEMKKEKDTLRDKGKKAESTESIGSSEKTEKKEEVVKRDRIRNKDRPAMQLYQPGARSRNRLCPPDDSTKSGDSAAERKQESGISHRKEGGEE [chain 1 Y160D]	0.21
chain 1 MKEEKEHRPKEKRVTLLTPAGATGSGGGTSGDSSKGEDKQDRNKEKKEALSKVVIRRLPPTLTKEQLQEHLQPMPEHDYFEFFSNDTSLYPHMYARAYINFKNQEDIILFRDRFDGYVFLDNKGQEYPAIVEFAPFQKAAKKKTKKRDTKVGTIDDDPEFRKFLESYATDNEKMTSTPETLLEEIEAKNRELIAKKTTPLLSFLKNKQRMREEKREERRRREIERKRQREEERRKWKEEEKRKRKDIEKLKKIDRIPERDKLKDEPKIKVHRFLLQAVNQKNLLKKPEKGDEKELDKREKAKKLDKENLSDERASGQSCTLPKRSDSELKDEKPKRPEDESGRDYREREREYERDQERILRERERLKRQEEERRRQKERYEKEKTFKRKEEEMKKEKDTLRDKGKKAESTESIGSSEKTEKKEEVVKRDRIRNKDRPAMQLYQPGARSRNRLCPPDDSTKSGDSAAERKQESGISHRKEGGEE [chain 1 Y160F]	1.08

Variants of: B1
Assay: as above
Remark: another data set of the same source

Variant	ratio to parent
chain 1 MKEEKEHRPKEKRVTLLTPAGATGSGGGTSGDSSKGEDKQDRNKEKKEALSKVVIRRLPPTLTKEQLQEHLQPMPEHDYFEFFSNDTSLYPHMYARAYINFKNQEDIILFRDRFDGYVFLDNKGQEYPAIVEFAPFQKAAKKKTKKRDTKVGTIDDDPEYRKFLESYATDNEKMTSTPETLLEEIEAKNRELIAKKTDPLLSFLKNKQRMREEKREERRRREIERKRQREEERRKWKEEEKRKRKDIEKLKKIDRIPERDKLKDEPKIKVHRFLLQAVNQKNLLKKPEKGDEKELDKREKAKKLDKENLSDERASGQSCTLPKRSDSELKDEKPKRPEDESGRDYREREREYERDQERILRERERLKRQEEERRRQKERYEKEKTFKRKEEEMKKEKDTLRDKGKKAESTESIGSSEKTEKKEEVVKRDRIRNKDRPAMQLYQPGARSRNRLCPPDDSTKSGDSAAERKQESGISHRKEGGEE [chain 1 T198D]	1.07
chain 1 MKEEKEHRPKEKRVTLLTPAGATGSGGGTSGDSSKGEDKQDRNKEKKEALSKVVIRRLPPTLTKEQLQEHLQPMPEHDYFEFFSNDTSLYPHMYARAYINFKNQEDIILFRDRFDGYVFLDNKGQEYPAIVEFAPFQKAAKKKTKKRDTKVGTIDDDPEYRKFLESYATDNEKMTSTPETLLEEIEAKNRELIAKKDTPLLSFLKNKQRMREEKREERRRREIERKRQREEERRKWKEEEKRKRKDIEKLKKIDRIPERDKLKDEPKIKVHRFLLQAVNQKNLLKKPEKGDEKELDKREKAKKLDKENLSDERASGQSCTLPKRSDSELKDEKPKRPEDESGRDYREREREYERDQERILRERERLKRQEEERRRQKERYEKEKTFKRKEEEMKKEKDTLRDKGKKAESTESIGSSEKTEKKEEVVKRDRIRNKDRPAMQLYQPGARSRNRLCPPDDSTKSGDSAAERKQESGISHRKEGGEE [chain 1 T197D]	1.11

Variants of: B1
Assay: as above
Remark: another data set of the same source

Variant	ratio to parent
chain 1 MKEEKEHRPKEKRVTLLTPAGATGSGGGTSGDSSKGEDKQDRNKEKKEALSKVVIRRLPPTLTKEQLQEHLQPMPEHDYFEFFSNDTSLYPHMYARAYINFKNQEDIILFRDRFDGYVFLDNKGQEYPAIVEFAPFQKAAKKKTKKRDTKVGTIDDDPEYRKFLESYADDNEKMTSTPETLLEEIEAKNRELIAKKTTPLLSFLKNKQRMREEKREERRRREIERKRQREEERRKWKEEEKRKRKDIEKLKKIDRIPERDKLKDEPKIKVHRFLLQAVNQKNLLKKPEKGDEKELDKREKAKKLDKENLSDERASGQSCTLPKRSDSELKDEKPKRPEDESGRDYREREREYERDQERILRERERLKRQEEERRRQKERYEKEKTFKRKEEEMKKEKDTLRDKGKKAESTESIGSSEKTEKKEEVVKRDRIRNKDRPAMQLYQPGARSRNRLCPPDDSTKSGDSAAERKQESGISHRKEGGEE [chain 1 T169D]	0.2
chain 1 MKEEKEHRPKEKRVTLLTPAGATGSGGGTSGDSSKGEDKQDRNKEKKEALSKVVIRRLPPTLTKEQLQEHLQPMPEHDYFEFFSNDTSLYPHMYARAYINFKNQEDIILFRDRFDGYVFLDNKGQEYPAIVEFAPFQKAAKKKTKKRDTKVGTIDDDPEYRKFLESYAADNEKMTSTPETLLEEIEAKNRELIAKKTTPLLSFLKNKQRMREEKREERRRREIERKRQREEERRKWKEEEKRKRKDIEKLKKIDRIPERDKLKDEPKIKVHRFLLQAVNQKNLLKKPEKGDEKELDKREKAKKLDKENLSDERASGQSCTLPKRSDSELKDEKPKRPEDESGRDYREREREYERDQERILRERERLKRQEEERRRQKERYEKEKTFKRKEEEMKKEKDTLRDKGKKAESTESIGSSEKTEKKEEVVKRDRIRNKDRPAMQLYQPGARSRNRLCPPDDSTKSGDSAAERKQESGISHRKEGGEE [chain 1 T169A]	1.1

Variants of: B2
Assay: co-immunoprecipitation (IP: Flag, blot IRE1α), western blot band quantification; transfected for 24 h

Variant	ratio to parent
chain 1 T197A	1.22
chain 1 T197D	1.1

Variants of: B2
Assay: as above
Remark: another data set of the same source

Variant	ratio to parent
chain 1 T198D	1.21
chain 1 T198A	1.06

Variants of: B2
Assay: co-immunoprecipitation (IP: Flag, blot IRE1α), western blot band quantification; U2OS cells, transfected for 24 h

Variant	ratio to parent
chain 1 Y160D	0.17
chain 1 Y160F	1.29

Variants of: B2
Assay: co-immunoprecipitation (IP: Flag, blot IRE1α), western blot band quantification; HEK293T cells, transfected for 24 h

Variant	ratio to parent
chain 1 Y160D	0.21
chain 1 Y160F	1.28

Variants of: B2
Assay: as above
Remark: another data set of the same source

Variant	ratio to parent
chain 1 T169D	0.26
chain 1 T169A	1.15
